Results as given in patent publication US20190328837A1 (Stanford University, published 2019).

Key:
[1] = biological target: T1, wild-type CNTFR-HIS (human, UniProt P26992 23-342); assay: flow cytometry, yeast-displayed CLCF1 construct, soluble CNTFR-HIS titrated, anti-HIS Hilyte Fluor 488 detection
T1 construct: also called wtCNTFR-HIS; HIS tagged CNTFR; not shown: HIS tag
T1 sequence: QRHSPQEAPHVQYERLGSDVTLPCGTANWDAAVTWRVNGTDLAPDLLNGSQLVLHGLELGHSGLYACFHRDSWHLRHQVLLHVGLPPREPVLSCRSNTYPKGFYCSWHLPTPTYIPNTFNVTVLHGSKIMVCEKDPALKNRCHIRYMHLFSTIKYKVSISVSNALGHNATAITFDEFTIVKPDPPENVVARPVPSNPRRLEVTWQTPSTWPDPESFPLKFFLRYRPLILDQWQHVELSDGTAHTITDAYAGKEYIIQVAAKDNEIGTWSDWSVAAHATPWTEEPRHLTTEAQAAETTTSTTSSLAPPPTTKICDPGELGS
Description: (§1) Using equilibrium binding conditions and screened by flow cytometric sorting (FACS), high throughput screening of the CLCF1 library using wtCNTFR-HIS was performed to enrich variants showing increased CLCF1 binding. Expression signal was used to normalize CNTFR binding to distinguish high expressers from high affinity binders. Screening stringency was increased throughout sorting by decreasing the concentration of wtCNTFR-HIS incubated with the library. […] Thus a variant containing the three mutations (named FRR-CLCF1) was chosen for further characterization (FIG. 7).
(§2) Yeast displaying CLCF1 constructs were incubated with varying concentrations of CNTFR for 12 h at room temperature to reach equilibrium binding. This was followed by washing with BPBS and resuspension in PBSA with 1:500 ratio of chicken anti-c-Myc (Invitrogen) for 30 min at 4 C. Yeast were then washed and pelleted, and secondary labeling was performed on ice for 30 min using PBSA with 1:100 dilution of goat anti-chicken PE (Santa Cruz) and mouse anti-HIS Hilyte Fluor 488 (Anaspec). Then samples were washed and analyzed by flow cytometry using Accuri (BD Biosciences). Samples were analyzed on BD Bioscience software, and data were analyzed using FlowJo software. Kd values were determined by fitting to a four-parameter sigmoidal curve. Error bars represent the standard deviation of triplicate experiments.

[2] = biological target: T1, wild-type CNTFR-HIS; assay: flow cytometry, yeast-displayed CLCF1 construct, soluble CNTFR-HIS titrated, apparent Kd from a four-parameter fit
Description: as §1, §2

[3] = biological target: T2, wild-type CNTFR-Fc (human, UniProt P26992 23-342); assay: cell-free ELISA, HIS-tagged soluble CLCF1 titrated against 2 nM CNTFR-Fc, anti-HIS capture, HRP anti-mouse detection
T2 construct: also called wtCNTFR-Fc; not shown: Fc domain; captured with anti-mouse Fc antibody
T2 sequence: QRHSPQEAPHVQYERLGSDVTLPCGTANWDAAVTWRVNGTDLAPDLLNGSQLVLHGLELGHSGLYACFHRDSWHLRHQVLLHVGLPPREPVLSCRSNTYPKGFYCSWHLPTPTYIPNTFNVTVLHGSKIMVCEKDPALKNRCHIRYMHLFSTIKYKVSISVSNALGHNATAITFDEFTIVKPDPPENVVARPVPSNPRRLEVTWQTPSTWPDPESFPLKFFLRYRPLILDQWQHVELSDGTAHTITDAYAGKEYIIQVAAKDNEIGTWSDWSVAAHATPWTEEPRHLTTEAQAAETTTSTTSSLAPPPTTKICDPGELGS
Description: (§3) 96-well plates were coated with 10 μg/mL of anti-HIS antibody overnight and blocked with 5% milk for 1 h. The plates were then washed twice with BPBS. Different concentrations of soluble constructs of HIS-tagged CLCF1 variants were incubated with 2 nM CNTFR-Fc in BPBS for 12 h at room temperature. The mixture was then added to 96-well plates coated with anti-HIS antibody for 1 h followed by washing with BPBS twice. Subsequently, the wells were incubated with 1:1000 diluted HRP conjugated anti-mouse antibody for 1 h at room temperature then washed four times with PBS. 1-Step Ultra TMB ELISA (Thermo Fisher Scientific) was used for the readout detected using a plate reader (Tecan).

[4] = biological target: T2, wild-type CNTFR-Fc; assay: cell-free ELISA: HIS-tagged CLCF1 constructs with 2 nM CNTFR-Fc, captured by anti-HIS, detected by anti-mouse HRP; all six mutations combined (sfCLCF1)
From the text: (§4) This was subsequently confirmed using a cell-free ELISA method. […] Unexpectedly, Y22C, W169L, and K180R decreased binding for gp130 with the combined mutations leading to the lowest binding while the mutations led to increased LIFR binding through increased CNTFR binding (FIG. 18). Because reduced binding interaction with beta receptors is desirable for antagonizing activation of CNTFR-CLCF1 mediated pathways, the clone with all six mutations, which was named sfCLCF1 (shuffled CLCF1) was selected for further studies.
as §3

[5] = biological target: T2, wild-type CNTFR-Fc; assay: cell-free ELISA: HIS-tagged CLCF1 constructs with 2 nM CNTFR-Fc, captured by anti-HIS, detected by anti-mouse HRP; FRR-CLCF1 plus W169L
Description: as §3

[6] = biological target: T2, wild-type CNTFR-Fc; assay: cell-free ELISA: HIS-tagged CLCF1 constructs with 2 nM CNTFR-Fc, captured by anti-HIS, detected by anti-mouse HRP; FRR-CLCF1 plus K180R
From the text: as §4, §3

[7] = biological target: T2, wild-type CNTFR-Fc; assay: assay not given; the FRR-CLCF1 and sfCLCF1 values in it equal those of FIG. 17 B (cell-free ELISA with 2 nM CNTFR-Fc)
[8] = biological target: T2, wild-type CNTFR-Fc; assay: cell-free ELISA, HIS-tagged soluble CLCF1 titrated against 2 nM CNTFR-Fc
Description: as §3

[9] = biological target: T2, wild-type CNTFR-Fc; assay: cell-free ELISA: HIS-tagged CLCF1 constructs with 2 nM CNTFR-Fc, captured by anti-HIS, detected by anti-mouse HRP; FRR-CLCF1 plus Y22C
Description: as §3

[10] = biological target: T2, wild-type CNTFR-Fc; assay: sandwich ELISA: soluble CLCF1 incubated with CNTFR-Fc, captured by anti-mouse Fc, detected by anti-CLCF1; sandwich ELISA, anti-mouse Fc capture, anti-CLCF1 detection
Description: (§5) The CLCF1 variants isolated from screening were cloned into the pET28b bacterial expression plasmid and expressed and purified. […] A sandwich ELISA was performed using an anti-mouse Fc antibody as a capturing agent for wtCNTFR-Fc, followed by an anti-CLCF1 antibody as a detection agent for the bound complex. […] ELISA was also used to measure binding interactions with the gp130 and LIFR beta receptors.
(§6) To measure the solution-phase binding interaction between the CLCF1 constructs and CNTFR, different concentrations of soluble, recombinant CLCF1 variants and wtCLCF1 were incubated with 2 nM CNTFR-Fc in BPBS for 12 h at room temperature. The mixture was then added to 96-well plates coated with anti-mouse-Fc antibody for 1 h followed by washing with BPBS twice. Subsequently, the wells were incubated with 1:1000 diluted anti-CLCF1 rabbit antibody for 2 h at room temperature then washed four times with BPBS. The wells were incubated with a 1:1000 diluted HRP conjugated anti-rabbit antibody for 2 h at room temperature, and washed four times with BPBS. 1-Step Ultra TMB ELISA was used for the readout, which was measured using a plate reader (Tecan).

[11] = biological target: T2, wild-type CNTFR-Fc; assay: sandwich ELISA, soluble CLCF1 titrated against 2 nM CNTFR-Fc, apparent Kd
Description: as §5, §6

[12] = biological target: T2, wild-type CNTFR-Fc; assay: sandwich ELISA, soluble CLCF1 titrated against 2 nM CNTFR-Fc, anti-mouse-Fc capture, anti-CLCF1 detection
Description: as §5, §6

[13] = biological target: T2, wild-type CNTFR-Fc; assay: cell-free ELISA: HIS-tagged CLCF1 constructs with 2 nM CNTFR-Fc, captured by anti-HIS, detected by anti-mouse HRP; FRR-CLCF1 parent, no added mutation
Description: as §3

B1: v2 (ligand)
CLCF1 variant displayed on yeast as Aga2p fusion with c-myc tag: LNRTGDPGPGPSIQKTYDLTRYLEHQLRSLAGTYLNYLGPPFNEPDFNPPRLGAETLPRATVDLEVWRSLNDKLRLTQNYEAYSHFLCYLRGLNRRAATAELRRSLAHFCTSLQGLLGSIAGVMAALGYPLPQPLPGTEPTWTPGPAHSDFLQKMDDFWLLKELQTWLWRSAKDFNRLKKKMQPPAAAVTLHLGAHGF
[1]
  EC50 (read off the curve): ~4 nM
[2]
  Kd: 3.1 nM

B2: recombinant soluble sfCLCF1 (shuffled CLCF1; Y22C, L86F, Q96R, H148R, W169L, K180R) (ligand)
chain: LNRTGDPGPGPSIQKTYDLTRCLEHQLRSLAGTYLNYLGPPFNEPDFNPPRLGAETLPRATVDLEVWRSLNDKLRLTQNYEAYSHFLCYLRGLNRRAATAELRRSLAHFCTSLQGLLGSIAGVMAALGYPLPQPLPGTEPTWTPGPARSDFLQKMDDFWLLKELQTWLLRSAKDFNRLKRKMQPPAAAVTLHLGAHGF
notes: HIS-tagged in the cell-free assay; also called the clone with all 6 mutations; a variant with all of the mutations combined
[3]
  EC50 (read off the curve): ~0.2 nM
[4]
  Kd: 0.115 nM

B3: recombinant soluble FRR-CLCF1 with W169L (ligand)
chain: LNRTGDPGPGPSIQKTYDLTRYLEHQLRSLAGTYLNYLGPPFNEPDFNPPRLGAETLPRATVDLEVWRSLNDKLRLTQNYEAYSHFLCYLRGLNRRAATAELRRSLAHFCTSLQGLLGSIAGVMAALGYPLPQPLPGTEPTWTPGPARSDFLQKMDDFWLLKELQTWLLRSAKDFNRLKKKMQPPAAAVTLHLGAHGF
notes: Read as FRR-CLCF1 plus W169L; HIS-tagged in the cell-free assay
[5]
  Kd: 0.64 nM

B4: recombinant soluble FRR-CLCF1 with K180R (ligand)
chain: LNRTGDPGPGPSIQKTYDLTRYLEHQLRSLAGTYLNYLGPPFNEPDFNPPRLGAETLPRATVDLEVWRSLNDKLRLTQNYEAYSHFLCYLRGLNRRAATAELRRSLAHFCTSLQGLLGSIAGVMAALGYPLPQPLPGTEPTWTPGPARSDFLQKMDDFWLLKELQTWLWRSAKDFNRLKRKMQPPAAAVTLHLGAHGF
notes: Read as FRR-CLCF1 plus K180R; HIS-tagged in the cell-free assay
[6]
  Kd: 0.559 nM

B5: FRRAA-CLCF1 (ligand)
chain: LNRTGDPGPGPSIQKTYDLTRYLEHQLRSLAGTYLNYLGPPFNEPDFNPPRLGAETLPRATVDLEVWRSLNDKLRLTQNYEAYSHFLCYLRGLNRRAATAELRRSLAHFCTSLQGLLGSIAGVMAALGYPLPQPLPGTEPTWTPGPARSDALQAMDDFWLLKELQTWLWRSAKDFNRLKKKMQPPAAAVTLHLGAHGF
notes: It is read as FRR-CLCF1 plus the LIFR-reducing alanine substitutions F151A and K154A
[7]
  Kd: 0.93 nM

B6: v3 (ligand)
CLCF1 variant displayed on yeast as Aga2p fusion with c-myc tag: LNRTGDPGPGPSIQKTYDLTRYLEHQLRSLAGTYLNYLGPPFNEPDFNPPRLGAETLPRATVDLEVWRSLNDKLRLTQNYEAYSHLLCYLRGLNRRAATAELRRSLAHFCTSLQGLLGSIAGVMAALGYPLPQPLPGTEPTWTPGPARSDFLQKMDDFWLLKELQTWLWRSAKDFNRLKKKMQPPAAAVTLHLGAHGF
[1]
  EC50 (read off the curve): ~3 nM
[2]
  Kd: 4.2 nM

B7: v4 (ligand)
soluble CLCF1 variant: LNRTGDPGPGPSIQKTYDLTRYLEHQLRSLAGTYLNYLGPPFNEPDFNPPRLGAETLPRATVDLEVWRSLNDKLRLTQNYEAYSHFLCYLRGLNRRAATAELRRSLAHFCTSLQGLLGSIAGVMAALGYPLPQPLPGTEPTWTPGPARSDFLQKMDDFWLLKELQTWLLRSAKDFNRLKRKMQPPAAAVTLHLGAHGF
notes: the text prints no Kd for it
[3]
  EC50 (read off the curve): ~0.2 nM
[8]
  Kd: 0.2 nM

B8: enCLCF1 (engineered CLCF1; Y22C, L86F, Q96R, H148R, F151A, K154A, W169L, K180R) (ligand)
chain: LNRTGDPGPGPSIQKTYDLTRCLEHQLRSLAGTYLNYLGPPFNEPDFNPPRLGAETLPRATVDLEVWRSLNDKLRLTQNYEAYSHFLCYLRGLNRRAATAELRRSLAHFCTSLQGLLGSIAGVMAALGYPLPQPLPGTEPTWTPGPARSDALQAMDDFWLLKELQTWLLRSAKDFNRLKRKMQPPAAAVTLHLGAHGF
notes: That change is not in the list of mutations; also called sfAA-CLCF1
[7]
  Kd: 0.12 nM

B9: recombinant soluble FRR-CLCF1 with Y22C (ligand)
chain: LNRTGDPGPGPSIQKTYDLTRCLEHQLRSLAGTYLNYLGPPFNEPDFNPPRLGAETLPRATVDLEVWRSLNDKLRLTQNYEAYSHFLCYLRGLNRRAATAELRRSLAHFCTSLQGLLGSIAGVMAALGYPLPQPLPGTEPTWTPGPARSDFLQKMDDFWLLKELQTWLWRSAKDFNRLKKKMQPPAAAVTLHLGAHGF
notes: HIS-tagged in the cell-free assay
[9]
  Kd: 0.464 nM

B10: recombinant soluble FRR-CLCF1 (L86F, Q96R, H148R) (ligand)
chain: LNRTGDPGPGPSIQKTYDLTRYLEHQLRSLAGTYLNYLGPPFNEPDFNPPRLGAETLPRATVDLEVWRSLNDKLRLTQNYEAYSHFLCYLRGLNRRAATAELRRSLAHFCTSLQGLLGSIAGVMAALGYPLPQPLPGTEPTWTPGPARSDFLQKMDDFWLLKELQTWLWRSAKDFNRLKKKMQPPAAAVTLHLGAHGF
notes: Expressed in E. coli from pET28b
[10]
  Kd: ~0.83 nM
[3]
  EC50 (read off the curve): ~1 nM
[11]
  Kd: 0.86 nM
[12]
  EC50 (read off the curve): ~1 nM
[13]
  Kd: 0.869 nM
